First the molecules themselves.
B1: GST-tagged mouse ZO-1(PDZ1) (residues 18–110) [mouse] / His6-tagged thioredoxin (Trx) fusion protein of mouse CLD-3 C-terminus (Trx-CLD3, residues 210–219) [mouse] (parent complex)
chain 1: IWEQHTVTLHRAPGFGFGIAISGGRDNPHFQSGETSIVISDVLKGGPAEGQLQENDRVAMVNGVSMDNVEHAFAVQQLRKSGKNAKITIRRKK
chain 2: GTAYDRKDYV

Variants of B1 are the subject of the test. In words: SPR; absence of phytic acid (gray bar); parent: 1.2e+03; read off a plot. (In SPR one partner is held on a chip, and binding of the other changes the refractive index at the surface.)
For chain 1 L43A, the response is roughly 28 RU. Under chain 1 V75A stands roughly 22 RU; under chain 1 R79A, roughly 40 RU. Turning to chain 1 F17A, the response is roughly 15 RU. On to chain 1 D41A, for which the response is roughly 110 RU.
